Molecular target: T1, angiotensin-converting-enzyme derived from pig kidney (pig) (UniProt F1RRW5)
T1 sequence (looked up): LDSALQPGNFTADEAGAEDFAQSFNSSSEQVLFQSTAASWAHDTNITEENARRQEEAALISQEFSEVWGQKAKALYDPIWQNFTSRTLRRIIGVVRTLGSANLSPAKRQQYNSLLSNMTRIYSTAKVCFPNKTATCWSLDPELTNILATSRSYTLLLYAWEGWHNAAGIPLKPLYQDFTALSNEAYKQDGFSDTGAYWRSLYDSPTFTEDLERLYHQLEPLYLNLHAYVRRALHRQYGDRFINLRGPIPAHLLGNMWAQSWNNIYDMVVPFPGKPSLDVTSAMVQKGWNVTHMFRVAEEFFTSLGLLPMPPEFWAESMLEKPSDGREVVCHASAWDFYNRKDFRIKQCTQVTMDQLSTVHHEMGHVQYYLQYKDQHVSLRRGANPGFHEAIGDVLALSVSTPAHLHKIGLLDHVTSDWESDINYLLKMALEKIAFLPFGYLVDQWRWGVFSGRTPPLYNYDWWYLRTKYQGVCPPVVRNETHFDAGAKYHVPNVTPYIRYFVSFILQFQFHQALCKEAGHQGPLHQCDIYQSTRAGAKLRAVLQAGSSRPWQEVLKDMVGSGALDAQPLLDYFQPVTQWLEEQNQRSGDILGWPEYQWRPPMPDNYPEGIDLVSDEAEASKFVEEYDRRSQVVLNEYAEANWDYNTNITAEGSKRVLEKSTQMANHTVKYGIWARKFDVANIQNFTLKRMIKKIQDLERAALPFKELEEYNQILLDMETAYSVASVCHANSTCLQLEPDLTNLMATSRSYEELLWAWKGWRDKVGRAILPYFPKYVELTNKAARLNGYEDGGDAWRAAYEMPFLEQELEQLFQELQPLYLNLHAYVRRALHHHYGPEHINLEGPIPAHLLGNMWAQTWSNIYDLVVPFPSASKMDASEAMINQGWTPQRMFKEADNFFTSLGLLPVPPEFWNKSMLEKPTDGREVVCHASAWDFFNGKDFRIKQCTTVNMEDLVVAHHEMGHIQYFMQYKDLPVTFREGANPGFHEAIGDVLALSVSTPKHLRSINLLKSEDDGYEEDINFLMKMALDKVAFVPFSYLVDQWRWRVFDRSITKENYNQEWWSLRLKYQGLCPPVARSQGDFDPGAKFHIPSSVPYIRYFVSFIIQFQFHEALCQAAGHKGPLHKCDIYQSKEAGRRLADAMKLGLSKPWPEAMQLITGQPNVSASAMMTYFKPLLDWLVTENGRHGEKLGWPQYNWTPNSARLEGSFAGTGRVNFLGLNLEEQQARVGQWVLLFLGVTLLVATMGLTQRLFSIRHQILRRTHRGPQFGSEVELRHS
Assay: cell-based or functional assay

In the case of Peptid S547 (SPLPEVPP) (peptide), the % inhibition at 0.39 µM, A is reported as 10.2%, the % inhibition at 0.39 µM, B is reported as 6.82% and the % inhibition at 0.39 µM, C is reported as 6.02%. The % inhibition at 0.39 µM, D was 0.575%, the % inhibition at 0.78125 µM, A was 9.62% and the % inhibition at 0.78125 µM, B was 10%. The % inhibition at 0.78125 µM, C was 7.72%, the % inhibition at 0.78125 µM, D was 10.8% and the % inhibition at 1.5625 µM, A was 13.4%. The % inhibition at 1.5625 µM, B was 14.9%, the % inhibition at 1.5625 µM, C was 9.3% and the % inhibition at 1.5625 µM, D was 12.9%. For the same substance, the % inhibition at 3.125 µM, A was 21.8%, the % inhibition at 3.125 µM, B was 18% and the % inhibition at 3.125 µM, C was 16%. The % inhibition at 3.125 µM, D was 11.6%, the % inhibition at 6.25 µM, A was 31.4% and the % inhibition at 6.25 µM, B was 29.2%. For the same substance, the % inhibition at 6.25 µM, C was 28%, the % inhibition at 6.25 µM, D was 25.7% and the % inhibition at 12.5 µM, A was 36.6%. It also gave a % inhibition at 12.5 µM, B of 36.5%, a % inhibition at 12.5 µM, C of 35.3% and a % inhibition at 12.5 µM, D of 34.5%. It also gave a % inhibition at 25 µM, A of 52%, a % inhibition at 25 µM, B of 46.2% and a % inhibition at 25 µM, C of 49.3%. The % inhibition at 50 µM, A was 67.1%, the % inhibition at 50 µM, B was 65% and the % inhibition at 50 µM, C was 63.6%. The % inhibition at 50 µM, D was 56%, the % inhibition at 100 µM, A was 79.8% and the % inhibition at 100 µM, B was 78.4%. The % inhibition at 100 µM, C was 78.4%, the % inhibition at 100 µM, D was 78% and the % inhibition at 200 µM, A was 89.6%. For the same substance, the % inhibition at 200 µM, B was 89.4%, the % inhibition at 200 µM, C was 88.5% and the % inhibition at 200 µM, D was 88.6%. It also gave a fluorescence at 0.39 µM, A of 934000, a fluorescence at 0.39 µM, B of 969000 and a fluorescence at 0.39 µM, C of 977000. The fluorescence at 0.39 µM, D was 1.03e+06, the fluorescence at 0.78125 µM, A was 940000 and the fluorescence at 0.78125 µM, B was 935000. It also gave a fluorescence at 0.78125 µM, C of 959000, a fluorescence at 0.78125 µM, D of 928000 and a fluorescence at 1.5625 µM, A of 900000. For the same substance, the fluorescence at 1.5625 µM, B was 885000, the fluorescence at 1.5625 µM, C was 943000 and the fluorescence at 1.5625 µM, D was 906000. The fluorescence at 3.125 µM, A was 814000, the fluorescence at 3.125 µM, B was 853000 and the fluorescence at 3.125 µM, C was 874000. It also gave a fluorescence at 3.125 µM, D of 919000, a fluorescence at 6.25 µM, A of 715000 and a fluorescence at 6.25 µM, B of 737000. For the same substance, the fluorescence at 6.25 µM, C was 750000, the fluorescence at 6.25 µM, D was 773000 and the fluorescence at 12.5 µM, A was 661000. The fluorescence at 12.5 µM, B was 662000, the fluorescence at 12.5 µM, C was 674000 and the fluorescence at 12.5 µM, D was 683000. It also gave a fluorescence at 25 µM, A of 502000, a fluorescence at 25 µM, B of 562000 and a fluorescence at 25 µM, C of 530000. The fluorescence at 25 µM, D was 560000, the fluorescence at 50 µM, A was 346000 and the fluorescence at 50 µM, B was 367000. The fluorescence at 50 µM, C was 382000, the fluorescence at 50 µM, D was 460000 and the fluorescence at 100 µM, A was 214000. It also gave a fluorescence at 100 µM, B of 229000, a fluorescence at 100 µM, C of 229000 and a fluorescence at 100 µM, D of 233000. The fluorescence at 200 µM, A was 113000, the fluorescence at 200 µM, B was 116000 and the fluorescence at 200 µM, C was 125000. It also gave a fluorescence at 200 µM, D of 124000.
